Measured values taken from patent US20240368275A1 (ELPIS BIOPHARMACEUTICALS, published 2024).

T1: full-length human Nectin4 with C-terminal flag and Myc tags on CHO cells (human, UniProt Q96NY8 32-510)
T1 construct: whole, on cells; also called Nectin4/CHO; CHO/Nectin4; not shown: C-terminal flag and Myc tags of pCMV6-Entry vector
T1 sequence (looked up): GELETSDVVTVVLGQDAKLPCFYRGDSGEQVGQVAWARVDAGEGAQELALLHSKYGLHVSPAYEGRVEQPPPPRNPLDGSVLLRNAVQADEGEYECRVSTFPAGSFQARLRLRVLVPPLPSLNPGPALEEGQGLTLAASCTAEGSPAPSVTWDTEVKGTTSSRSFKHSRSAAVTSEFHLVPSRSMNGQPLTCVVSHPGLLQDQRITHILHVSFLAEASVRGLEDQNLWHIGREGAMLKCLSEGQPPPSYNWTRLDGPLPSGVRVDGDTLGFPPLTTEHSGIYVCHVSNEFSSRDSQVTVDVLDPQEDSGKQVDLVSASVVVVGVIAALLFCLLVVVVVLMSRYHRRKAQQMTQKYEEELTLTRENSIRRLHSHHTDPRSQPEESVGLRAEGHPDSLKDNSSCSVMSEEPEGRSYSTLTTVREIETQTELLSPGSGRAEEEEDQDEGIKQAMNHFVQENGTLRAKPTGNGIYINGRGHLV

T2: human Nectin4-HIS tagged recombinant protein (human, UniProt Q96NY8 32-349)
T2 construct: also called hNectin4-HIS; Nectin4 HIS tagged protein; not shown: HIS tag
T2 sequence (looked up): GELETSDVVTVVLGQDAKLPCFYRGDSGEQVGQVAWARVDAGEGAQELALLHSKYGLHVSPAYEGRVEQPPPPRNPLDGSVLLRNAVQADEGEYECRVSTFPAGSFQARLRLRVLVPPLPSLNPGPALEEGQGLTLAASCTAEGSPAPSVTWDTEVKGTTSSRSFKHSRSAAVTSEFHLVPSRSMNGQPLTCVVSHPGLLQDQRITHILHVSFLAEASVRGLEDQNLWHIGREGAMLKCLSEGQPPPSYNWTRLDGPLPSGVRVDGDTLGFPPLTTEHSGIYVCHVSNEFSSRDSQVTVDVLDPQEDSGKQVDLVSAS

B1: 2020EP47-F02 IgG (EP544/EP545) (antibody, V domains shown)
VH: QVQLQQWGAGLLKPSETLSLTCAVYGGSFSGYYWSWIRQPPGKGLEWIGEINHSGSTNYNPSLKSRVTISVDTSKNQFSLKLSSVTAADTAVYYCARGWYLGFDYWGQGTLVTVSS
VL: QSVLTQPRSVSGSPGQSVTISCTGTSRDVGGYDYVSWYQQYPGKAPKLMISGVSERPSGVPDRFTGSRSANTASLTISGLQTDDEANYYCCSYAGSFTWVFGDGTKLTVLG
notes: Human IgG1 with lambda light chain; entries without signal peptide used
B2: EP369/371/289 anti-Nectin4/CD3/IL2 protein complex (bispecific antibody)
chain: not shown
heavy: not shown
light: QAVVTQPPSVSVAPGKTATITCGGNNIGSKGVHWYQQKPGQAPVLVIYYDTDRPSGIPERLSGSNSGNTATLTISRVEAGDEADYYCQVWDSSSDHPVFGGGTKLTVLGQPKANPTVTLFPPSSEELQANKATLVCLISDFYPGAVTVAWKADGSPVKAGVETTKPSKQSNNKYAASSYLSLTPEQWKSHRSYSCQVTHEGSTVEKTVAPTECS
notes: Anti-CD3 sp34 scFv-Fc knob (EP369), B09 heavy chain hole with wild-type IL2 at the C-terminus (EP371), light chain EP289; also called EP369/EP371/EP289
B3: EP500/EP378/EP289 anti-Nectin4/CD3 bispecific antibody (bispecific antibody)
heavy 1: EVQLVQSGAEVKKPGASVKVSCKASGYTFTGYYMHWVRQAPGQGLEWMGRINPNSGGTNYAQKFQGRVTMTRDTSISTAYMELSGLRSDDTAVYFCARVTYNIGWYIDYWGQGTLVTVSSASTKGPSVFPLAPSSKSTSGGTAALGCLVKDYFPEPVTVSWNSGALTSGVHTFPAVLQSSGLYSLSSVVTVPSSSLGTQTYICNVNHKPSNTKVDKKVEPKSCDGGGGSGGGGSEVQLVESGGGLVQPGGSLRLSCAASGFTFNTYAMNWVRQAPGKGLEWVARIRSKYNNYATYYAASVKGRFTISRDDSKNSLFLQMNSLKTEDTAVYYCVRHGNFGNSYVSWFAYWGQGTLVTVSSGGGGSGGGGSGGGGSGGGGSQAVVTQEPSLTVSPGGTVTLTCASSTGAVTTSNYANWVQEKPDHLFTGLIGGTNKRAPGVPARFSGSLLGGKAALTLSGVQPEDEAEYYCALWYSNLWVFGGGTKLTVLEPKSCDKTHTCPPCPAPEAAGGPSVFLFPPKPKDTLMISRTPEVTCVVVDVSHEDPEVKFNWYVDGVEVHNAKTKPREEQYNSTYRVVSVLTVLHQDWLNGKEYKCKVSNKALGAPIEKTISKAKGQPREPQVCTLPPSRDELTKNQVSLSCAVKGFYPSDIAVEWESNGQPENNYKTTPPVLDSDGSFKLVSKLTVDKSRWQQGNVFSCSVMHEALHNHYTQKSLSLSPGK
heavy 2: not shown
light: B2 light
notes: Bivalent for Nectin4; EP500 carries a humanized SP34 scFv between CH1 and hinge, hole; template of EP695, EP696 and EP697; also called EP500/378/289
B4: EP369/379/289 anti-Nectin4/CD3/IL2 protein complex (bispecific antibody)
chain: not shown
heavy: EVQLVQSGAEVKKPGASVKVSCKASGYTFTGYYMHWVRQAPGQGLEWMGRINPNSGGTNYAQKFQGRVTMTRDTSISTAYMELSGLRSDDTAVYFCARVTYNIGWYIDYWGQGTLVTVSSASTKGPSVFPLAPSSKSTSGGTAALGCLVKDYFPEPVTVSWNSGALTSGVHTFPAVLQSSGLYSLSSVVTVPSSSLGTQTYICNVNHKPSNTKVDKKVEPKSCDKTHTCPPCPAPEAAGGPSVFLFPPKPKDTLMISRTPEVTCVVVDVSHEDPEVKFNWYVDGVEVHNAKTKPREEQYNSTYRVVSVLTVLHQDWLNGKEYKCKVSNKALGAPIEKTISKAKGQPREPQVCTLPPSRDELTKNQVSLSCAVKGFYPSDIAVEWESNGQPENNYKTTPPVLDSDGSFKLVSKLTVDKSRWQQGNVFSCSVMHEALHNHYTQKSLSLSPGKGGGGSGGGGSGGGGSGGGGSAPASSSTKKTQLQLEHLLLDLQMILNGINNYKNPLLTDMLTRKFYMPKKATELKHLQCLEEELKPLEEVLNLAQSKNFHLRPRDLISNINVIVLELKGSETTFMCEYADETATIVEFLNRWITFSQSIISTLT
light: B2 light
notes: Anti-CD3 sp34 scFv-Fc knob (EP369), B09 heavy chain hole with K35L R38D F42R IL2 at the C-terminus (EP379), light chain EP289; also called EP369/EP379/EP289

Assays:
[1] = target: T1, full-length human Nectin4 with …; test: flow cytometry, IgG on Nectin4/CHO cells, anti-hFc Alexa fluor 647
Description: 200 nM of purified anti-Nectin4 IgG antibodies were diluted in full medium and incubated with Nectin4/CHO and CHO cells in 96 wells plate on ice for 1 hour. Cells were spun down at 1200 rpm for 5 minutes at 4° C. to remove primary antibodies. Cells were then washed once with 200 uL of full medium per well. Samples were detected with anti-hFc Alexa fluor 647 by adding 100 uL of diluted secondary antibody and incubated at 4° C. for 30 minutes in the dark. Samples were spun down at 1200 rpm for 5 minutes at 4° C. and washed twice with 200 uL of 1×PBS per well. Reconstituted samples in 200 uL of 1×PBS and read on Attune NxT cytometer. Analysis was done by Attune NxT software plotting the overlay histogram of […] proteins binding onto both negative and target cell lines.

[2] = target: T2, human Nectin4-HIS tagged recombinant …; test: ELISA, coated human Nectin4-HIS, IgG titrated, anti-hFc HRP
Description: An ELISA assay was developed to determine the EC₅₀ of exemplary anti-Nectin4 IgG antibodies. Briefly, 384 well plate was immobilized with human Nectin4-HIS tagged recombinant protein at final concentration of 2 ug/mL in 1×PBS in total volume of 25 uL per well. The plate was incubated overnight at 4° C. followed by blocking with 80 uL of superblock per well for 1 hour. Titration of purified anti-Nectin4 IgG starting at 200 nM 2-fold serial dilution, 25 uL was added to human Nectin4 immobilized wells and incubated for 1 hour with shaking. The Nectin4 binding was detected by adding 25 uL of anti-hFc HRP diluted at 1:5000 in 1×PBST. In between each step, the plate was washed 3 times with 1×PBST in a plate washer. The plate was then developed with 20 ul of TMB substrate for 5 mins and stopped by adding 20 ul of 2N sulfuric acid. The plate was read at OD450 nm Biotek plate reader and then plotted in Prism 8.1 software.

CD3 on Jurkat cells [3] = target: T3, CD3 on Jurkat cells (UniProt P07766 23-207, limits assumed); test: cell-based or functional assay
T3 sequence (P07766 23-207 limits assumed): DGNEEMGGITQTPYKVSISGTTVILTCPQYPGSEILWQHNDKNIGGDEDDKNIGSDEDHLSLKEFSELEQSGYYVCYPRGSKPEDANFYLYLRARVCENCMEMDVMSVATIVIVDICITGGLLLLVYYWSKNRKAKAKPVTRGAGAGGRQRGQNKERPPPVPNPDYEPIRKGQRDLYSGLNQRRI

CD3 on Jurkat cells [4] = target: T3, CD3 on Jurkat cells; test: flow cytometry on Jurkat cells
Description: Jurkat cells were plated at 100,000 cells/well in a 96-well plate with 50 μL of full media. Anti-Nectin4/CD3 antibodies were 3-fold serial titrated from 20 nM. 50 μL was added to the cells and incubated for 1 hours at room temperature with shaking. Samples were washed one time with flow buffer. […] Samples were washed once with flow buffer. Samples were stained with 100 uL Zombie Fixable Viability Dyes at 1:800 dilution per well and incubated in dark at room temperature for 30 mins. Samples were spun down at 1300 rpm for 5 minutes and washed once with 200 uL flow buffer. Reconstituted samples in 200 uL of flow buffer and read on Attune NxT cytometer. EC50 values for CD3 binding were calculated using Prism 8.1 software.
Similar methods of above mentioned were used to measure the binding activities of anti-Nectin4/CD3/IL-2 complexes to CHO/Nectin4 and Jurkat cells, respectively.

[5] = target: T2, human Nectin4-HIS tagged recombinant …; test: ELISA, coated human Nectin4-HIS, complex titrated, anti-hFc HRP
Description: ELISA was performed to determine the EC₅₀ of anti-Nectin4/CD3/IL2 protein complexes. Briefly, 384 well plate was immobilized with human Nectin4-HIS tagged recombinant protein at final concentration of 2 ug/mL in 1×PBS in total volume of 25 uL per well. The plate was incubated overnight at 4° C. followed by blocking with 80 uL of superblock per well for 1 hour. […] The Nectin4 binding was detected by adding 25 uL of anti-hFc HRP diluted at 1:10000 in 1×PBST. In between each step, the plate was washed 3 times with […] in a plate washer. The plate was then developed with 20 ul of TMB substrate for 5 mins and stopped by adding 20 ul of 2N sulfuric acid. The plate was read at OD450 nm Biotek plate reader and then plotted in Prism 8.1 software. Similar SPR methods were applied to measure the binding of the protein complexes to Nectin4, CD3E and IL2 receptors.

[6] = target: T1, full-length human Nectin4 with …; test: flow cytometry on CHO/Nectin4 cells
Description: Nectin4/CHO Nectin4 cells were plated at 100,000 cells/well in a 96-well plate in 50 μL of full media. Cells were rested 1 hour at 37° C. Anti-Nectin4/CD3 was 3-fold serial titrated from 50 nM. 50 μL was added to the cells and incubated for 1 hours with shaking. Samples were washed one time with flow buffer. […] Samples were washed once with flow buffer. Samples were stained with 100 uL Zombie Fixable Viability Dyes (1:800 dilution) per well and incubated in dark at room temperature for 30 mins. Samples were spun down at 1200 rpm for 5 minutes and washed once with 200 uL flow buffer. Reconstituted samples in 200 uL of flow buffer and read on Attune NxT cytometer. EC₅₀ values for Nectin4 Binding were determined using Prism software.

[7] = target: T2, human Nectin4-HIS tagged recombinant …; test: ELISA, coated Nectin4 HIS tagged protein, bispecific titrated, anti-Human HRP
Description: An ELISA assay was developed to determine the EC₅₀ of anti-Nectin4/CD3 bispecific antibodies. Briefly, 384 well plate was immobilized with human CD3E or Nectin4 HIS tagged protein at final concentration of 2 ug/mL in 1×PBS in total volume of 25 uL per well. The plate was incubated overnight at 4° C. followed by blocking with 80 uL of superblock per well for 1 hour. Purified anti-Nectin4/CD3 was 3-fold serial titrated from 100 nM. 25 uL was added to human Nectin4/CD3 immobilized wells and incubated for 1 hour with shaking. The CD3E or Nectin4 binding was detected by adding 25 uL of anti-Human HRP diluted at 1:10000 in 1×PBST. In between each step, the plate was washed 3 times with […] in a plate washer. The plate was then developed with 20 ul of TMB substrate for 5 mins and stopped by adding 20 ul of 2N sulfuric acid. The plate was read at OD450 nm Biotek plate reader and then plotted in Prism 8.1 software to calculate EC50.

Row | Binder | EC50 [1] [nM] | EC50 [2] [nM] | Jurkat Cell Activation Activity, NFAT reporter EC50 (CD3 on Jurkat cells [3]) [nM] | EC50 (CD3 on Jurkat cells [4]) [nM] | EC50 [5] [nM] | EC50 [6] [nM] | EC50 [7] [nM]
1 | B1 | 0.125 | 0.119 | – | – | – | – | –
2 | B2 | – | – | 0.009 | 1.65 | 0.016 | – | –
3 | B3 | – | – | – | – | – | 0.234 | 0.022
4 | B4 | – | – | 0.044 | 1.04 | 0.042 | – | –
